Results from patent publication US5739002A, “Method for reproducing in vitro the Proteolytic activity of the NS3 protease of hepatitis C virus (HCV)” (Istituto di Richerche di Biologia Molecolare P. Angeletti …, priority 1994, dated 1998).

Tests used:
HCV NS3 serine protease [1] = biological target: T1, HCV NS3 serine protease (Hepatitis C virus (isolate BK), UniProt P26663); experiment: Activation of HCV NS3 serine protease in cultivated HeLa cells (vTF7-3 infection, plasmid cotransfection, immunoprecipitation); format: cell-based; settings: NS4A expressed transiently in HeLa cells together with the NS3 serine protease domain; no cleavage without NS4A
T1 construct: substrate NS5AB precursor

HCV NS3 serine protease [2] = biological target: T1, HCV NS3 serine protease; experiment: Activation of HCV NS3 serine protease in an in vitro translation assay (rabbit reticulocyte extracts, NS5AB precursor substrate); format: biochemical
Source text: The plasmids described in FIG. 1 can also be used for in vitro synthesis of mRNA coding for the respective HCV proteins using the purified RNA polymerase enzyme of the phage T7 (Promega).
Generally the plasmids derived from pCite-1^R were linearized using suitable restriction enzymes and transcribed using the protocols supplied by the manufacturer (Promega). These synthetic mRNA, could later be used to synthesize the corresponding proteins in extracts of rabbit reticulocytes in the presence of canine pancreas microsomal membranes. The reticulocyte extracts, the canine pancreas microsomal membranes, like all the other material required, were purchased from Promega, which also supplied the instructions for the in vitro protein syntheses process described above.
Programming the in vitro translation mixture with mRNA transcribed from pCite(NS3) it is possible to observe synthesis of a protein with the expected molecular weight (68 kDa) containing the entire NS3 serine protease domain. The mRNA transcribed from pCite(NS5AB) guides the synthesis of a precursor of 115 kDa which contains NS5A and NS5B and is thus a substrate for the proteolytic activity associated with NS3.
This peptide was added to an in vitro translation mixture simultaneously programmed with the mRNAs transcribed from the plasmids pCite(NS3) and pCite(NS5AB).

[3] = biological target: T2, recombinant NS3 serine protease (Hepatitis C virus (isolate BK), UniProt P26663); experiment: Assay of recombinant HCV NS3 serine protease purified from E. coli on a peptide substrate (NS4A/4B junction), HPLC; format: biochemical
T2 construct: NS4A/4B peptide substrate
Experimental: The recombinant NS3 serine protease produced according to the above procedure in E. coli could be assayed for activity by cleaving a substrate that provides detectable cleavage products. The signal is preferably detectable by colorimetric or fluorometric means. Methods such as HPLC and the like are also suitable.
For example, we used, as a substrate, synthetic peptides corresponding to the NS4A/4B junction of the HCV polyprotein.
The activity assay is performed by incubating 5-1000 μM substrate and 0.05-1 μM protease in buffer containing 25 mM Tris/HCl pH 7.5, 3 mM dithiothreitol, 0.5% (w/v) CHAPS and 10% (v/v) glycerol for 1-3 hours at 22° C. The reaction is stopped by addition of trifluoracetic acid to yield a final concentration of 0.1% (w/v).
The reaction products are then separated by HPLC on a C18 reverse phase column and quantitated according to their absorbance of the far UV light.

T1 sequence (P26663 1007-1615): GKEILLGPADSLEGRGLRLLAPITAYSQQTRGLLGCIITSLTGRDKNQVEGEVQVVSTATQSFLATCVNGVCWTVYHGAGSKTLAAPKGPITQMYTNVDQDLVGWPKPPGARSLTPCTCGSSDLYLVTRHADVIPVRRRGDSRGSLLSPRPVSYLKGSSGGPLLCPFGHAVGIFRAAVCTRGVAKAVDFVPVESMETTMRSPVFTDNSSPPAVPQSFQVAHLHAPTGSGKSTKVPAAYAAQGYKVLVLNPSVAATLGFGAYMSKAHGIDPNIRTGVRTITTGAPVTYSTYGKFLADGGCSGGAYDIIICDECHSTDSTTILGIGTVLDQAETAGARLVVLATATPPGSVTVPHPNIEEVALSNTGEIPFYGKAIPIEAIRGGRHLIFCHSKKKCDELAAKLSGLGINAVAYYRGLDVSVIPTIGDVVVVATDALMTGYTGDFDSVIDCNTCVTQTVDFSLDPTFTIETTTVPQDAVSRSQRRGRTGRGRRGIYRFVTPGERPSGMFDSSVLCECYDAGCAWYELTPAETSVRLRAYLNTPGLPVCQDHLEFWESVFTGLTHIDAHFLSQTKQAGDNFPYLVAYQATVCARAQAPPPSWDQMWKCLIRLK
T2 sequence (P26663 1027-1206): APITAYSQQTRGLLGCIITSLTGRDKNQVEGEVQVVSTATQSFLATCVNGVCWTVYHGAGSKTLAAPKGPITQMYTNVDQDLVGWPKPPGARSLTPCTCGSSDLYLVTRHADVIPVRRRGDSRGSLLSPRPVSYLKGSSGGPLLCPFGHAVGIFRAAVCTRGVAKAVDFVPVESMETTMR

Substance | activation of the proteolytic activity associated with NS3 (cleavage of the precursor encoded by pCite(NS4B5A)) (HCV NS3 serine protease [1]) | serine protease activity of NS3 on a substrate containing NS5A and NS5B (HCV NS3 serine protease [2]; in vitro translation, protein sequence containing NS4A present in addition to the NS3 protease domain, no activity with NS3 domain alone) | proteolytic activity of the NS3 serine protease domain on NS5AB substrate (HCV NS3 serine protease [2]; peptide added to in vitro translation mixture programmed with mRNAs from pCite(NS3) and pCite(NS5AB)) | stimulation of the proteolytic activity of the recombinant NS3 serine protease ([3]; increasing amounts of peptide, NS4A/4B junction peptide substrate, pH 7.5, 22° C., HPLC) | peptide to protease ratio at which maximal activity is reached ([3]; recombinant NS3 serine protease and synthetic peptide)
NS4A: HCV non-structural hydrophobic protein of 6 kDa acting as cofactor of the NS3 serine protease | can thus activate the proteolytic activity associated with NS3 | serine protease activity of NS3 becomes evident | – | – | –
SEQ ID NO:3: Synthetic peptide derived from the C-terminal portion of SEQ ID NO:2 (NS4A); carboxy terminal cysteine replaced with alpha-aminobutyric acid (Abu) | – | – | proteolytic cleavage of the substrate in the two products containing the proteins NS5A and NS5B | up to 20 fold | equimolar amounts
